Measurements reported in article PMC11891404, “Thermodynamic versus kinetic basis for the high conformational stability of nanobodies for therapeutic applications” (Febs Letters, 2024).

Target: T1, AGT-LM, minor allele of the human alanine glyoxylate aminotransferase (Homo sapiens, AGXT minor allele (AGT-LM), UniProt P21549, strain)
T1 construct: alanine:glyoxylate aminotransferase, human, minor allele (AGT-LM)
Assay: SPR; Biacore T200; His-tagged NB-AGT captured on a Ni-loaded NTA chip and covalently immobilised (EDC/NHS); AGT-LM injected at 0.74-60 nM in HBS-EP+ (10 mM HEPES, 150 mM NaCl, 3 mM EDTA, 0.05% Tween 20), single cycle kinetics, 120 s pulses, 70 uL/min; 25 °C; 1:1 interaction model
Details: both partners purified

B1: NB-AGT-1 (VHH)
VHH: QVQLVESGGGLVQAGDSLRLSCAASGLAFSTYGMGWFRQAPGKEREFVADINWSGSSTYVADSVKGRFTISRDNAKNTVYLQMNRLKPEDTAVYSCAAAPGGGLRAGPSRRYEYWGQGTQVTVSS
notes: also in the AlphaFold 2 model files of Data S1; Selected by phage display from an immunised llama; Covalently immobilised on the NTA chip after capture by its His tag; also called NB-1; nanobody 1 raised against AGT-LM; source: E. coli BL21 (DE3), pET-24(+), purified (IMAC, SuperDex 75 SEC); not shown: His6, C-terminal, kept
  Kd: 3.8 nM

B2: NB-AGT-6 (VHH)
VHH: QVQLVESGGGSVQTGGSLRLACVASGFTSDHYSIGWFRQAPGKEREGVSCIGMHDGSTKYAESVKGRFTISSDNDKNTVYLQMNSLKPEDTAVYYCAAGPLVLLDSDTYQSWGEGTQVTVSS
notes: also in the AlphaFold 2 model files of Data S1; Selected by phage display from an immunised llama; Covalently immobilised on the NTA chip after capture by its His tag; also called NB-6; nanobody 6 raised against AGT-LM; source: E. coli BL21 (DE3), pET-24(+), purified (IMAC, SuperDex 75 SEC); not shown: His6, C-terminal, kept
  Kd: ~0.005 nM
